The nanobody polyreactivity screen of Harvey et al. (2022)

Test: yeast display, Sf9 membrane polyspecificity reagent, FACS + sequencing; frameworks hold sequencing errors
Procedure, shortened: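 In a synthetic yeast display library (Saccharomyces cerevisiae BJ5465), nanobody expression was induced with galactose for 36–48 hours. FACS gates were set low and high (top ~1%) using anti-HA fluorescence for expression and streptavidin fluorescence for binding of the Sf9 membrane reagent. Each polyreactivity label is drawn from the gate of origin.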

Sequence	polyreactivity (PSR sort gate)
QVQLVESGGGLVQAGGSLRLSCAASGFTFRRYAMGWYRQAPGKERELVAAISYGGGRTYYAESVKGRFTISRDNAKNTVYLQMNSLKPEDTAVYYCAADVLSRYVGEADYWGQGTQVTVSS	high polyreactivity
QVQLVESGGGLVQAGGSLRLSCAASGFTFRRYAMGWYRQAPGKERELVAAITRTGAGTYYADSVKGRFTISRDNAKNTVYLQMNSLKPEDTAVYYCAAAFYYASAMDYWGQGTQVTVSS	high polyreactivity
QVQLVESGGGLVQAGGSLRLSCAASGFTFRRYAMGWYRQAPGKERELVARISFNGGSTFYADSVKGRFTISRDNAKNTVYLQMNSLKPEDTAVYYCAAVFGGRSLSRTYGYDYWGQGTQVTVSS	high polyreactivity
QVQLVESGGGLVQAGGSLRLSCAASGFTFRRYAMGWYRQAPWKESELVAAITRDGITNYAASVKGRFTLSRDNAKNTVYFQMNILKPEDTAVYYCARRTGRARLDYWGQGTQVSVSS	high polyreactivity
QVQLVESGGGLVQAGGSLRLSCAASGFTFRRYDMGWYRQAPGKERELVATLNRGGSTDYADSVKGRFTISRDNAKNTVYFQLNSLKPEETAVYYCATRYYSSRNWSEYYYWGQGTQVTVSS	high polyreactivity
QVQLVESGGGLVQAGGSLRLSCAASGFTFRSYAMGWYRQAPGKERELVAAISSGGSTYYADSVKGRFTISRDNAKNTVYLQMNSLKPEDTAVYYCAARRYYGYGHWGQGTQVNVSS	high polyreactivity
QVQLVESGGGLVQAGGSLRLSCAASGFTFRSYAMGWYRQAPGKERELVADISIRGGGTYYADTVKGRFTISRDNAKNTVYLQMNSLKPEDTAVYYCAAERYKPFLWPRYDYWGQGTQVTVSS	low polyreactivity
QVQLVESGGGLVQAGGSLRLSCAASGFTFRSYAMGWYRQAPGKERELVASISPGATTKYADSVKGRFTISRDNAKNTVYLQMNSLKPEDTAVYYYEVYQILVRRLSYWGQGTQVTVSC	high polyreactivity
QVQLVESGGGLVQAGGSLRLSCAASGFTFRTYAMGWYRQAPGKERELVAAINTGGGTNYADSVKGRFTISRDNAKNTVYLQMNSLKPEDTAVYFCNAVHYYYYYWYSLYDSWGKGTQVTVSS	high polyreactivity
QVQLVESGGGLVQAGGSLRLSCAASGFTFRTYAMGWYRQAPGKERELVADISGSGGSTYYADSVKGRFTISRDNAKNTVYLQMISLKPEDTAVYYCAATIYNWGYEREYWGQGTQVTVSS	high polyreactivity
QVQLVESGGGLVQAGGSLRLSCAASGFTFRWYAMGWYRQAPGKERELVAAISTTGGSTYYADSVKGRFTISRDNAKNTVYFQLNSLKPEDTAVYYCNVYSGRYWESHKFDSWGQGTQVTVSS	high polyreactivity
QVQLVESGGGLVQAGGSLRLSCAASGFTFRWYAMGWYRQAPGKERELVAAITHSGGSTYYADSVKGRFTISRDNAKNTVYLQMNSLKPEDTAVYYCAAGYIRKYSAFRYNYWGQGTQVTVSS	high polyreactivity
QVQLVESGGGLVQAGGSLRLSCAASGFTFRWYAMGWYRQAPGKERELVADITRHGGSTYYADSVKGRFTISRDNAKNTVYLQMNSLKPEDTAVYYCAKQNETPWQAYYFDWPEFDYWGQGTQVTVSS	low polyreactivity
QVQLVESGGGLVQAGGSLRLSCAASGFTFRWYAMGWYRQAPGKETELVAAISRDGSTNYADSVKGRFTISRDNAKNTVYLQMNSLKPEDTAFYYCATDSYPWGRSTGWRKQKGYYWGQGTKVTVSS	high polyreactivity
QVQLVESGGGLVQAGGSLRLSCAASGFTFRWYDMGWYRQAPGKERELVAVISRSGGRTYYADSVKGRFTISRDNAKNTVYLQMNSLKPEDTAVYYCAADWWGYDGRYDYWGQGTQVTVSS	high polyreactivity
QVQLVESGGGLVQAGGSLRLSCAASGFTFRWYTMGWYRQAPGKERELVAAISWSGTSTYYADSVKGRFTISRDNAKNTVYLQMNSLKPEDTAVYYCAAADFYYTGADDYWGQGTQVTVSS	high polyreactivity
QVQLVESGGGLVQAGGSLRLSCAASGFTFRWYTMGWYRQAPGKERELVASINWSTGSTYYADSVKGRFTISRDNAKNTVYLQMNSLKPEDTAVYYCAATAWYNSYFGLDYWGQGTQVTVSS	high polyreactivity
QVQLVESGGGLVQAGGSLRLSCAASGFTFRYNAMGWYRQAPGKERELVAAITNSGGGTYYADSVKGRFTISRDNAKNTVYLQMNSLKPEDTAVYYCNAKRTNRYVWGKYDYWGQGTQVTVSS	high polyreactivity
QVQLVESGGGLVQAGGSLRLSCAASGFTFRYNAMGWYRQAPGKERELVASITYSGGTTTYADSVKGRFTISRDNAKNTVYLQMNSLKPEDTAVYYCAARGYFSGYRVYYWGQGTQVTVSS	high polyreactivity
QVQLVESGGGLVQAGGSLRLSCAASGFTFRYYAMGWDRQAPGKERDWVAAITRRGGSTYYSDSVKGRFTISRDNAKNTVYLLMNSLKPEDTAVYYCAASLWTTSADYDYWGQGTQVTVSS	high polyreactivity
QVQLVESGGGLVQAGGSLRLSCAASGFTFRYYAMGWYRQAAGKDRELVAAISSGGRTYYADSVKGRFKISRDNAKNTVYLQMNSLKPADTAVYYCNASRHFRRVEYDYWGQGTQVTVSS	high polyreactivity
QVQLVESGGGLVQAGGSLRLSCAASGFTFRYYAMGWYRQAPGKERELVAAIDWSGGSTYYADSVKGRFTISRDNAKNTVYLQMNSLKPEDTAVYYCNAVLVPREYYSWGQGTQVTVSS	low polyreactivity

Sequence	polyreactivity (PSR sort gate)
QVQLVESGGGLVQAGGSLRLSCAASGFTFRYYAMGWYRQAPGKERELVAAISKSGGSTYYADSVKGRFTISRDNAKNTVYLQMNSLKPEDTAVYYCAARNWFSYYQIMDYWGQGTQVTVSS	high polyreactivity
QVQLVESGGGLVQAGGSLRLSCAASGFTFRYYAMGWYRQAPGKERELVAAISKSGGSTYYADSVKGRFTISRDNAKNTVYLQMNSLKPEDTGVFYCAADYAHIGYDYDYWGQGTQVTVSS	high polyreactivity
QVQLVESGGGLVQAGGSLRLSCAASGFTFRYYAMGWYRQAPGKERELVAAISRSDSRTYADSVKGRFTISRDNAKNTVYLQMTSLNPEDTAVYYCAARIRPLYANVRYGYWGQGTQVTVSS	high polyreactivity
QVQLVESGGGLVQAGGSLRLSCAASGFTFRYYAMGWYRQAPGKERELVAAISSRGGTTYYADSVKGRFTISRDNAKNTVYLQMNSLKPEDTAVYYCAAVRPPSYYYWGQGTQVTVSS	high polyreactivity
QVQLVESGGGLVQAGGSLRLSCAASGFTFRYYTMGWYRQAPGKEREFVAAIRGGGSSTYYADSVKGRFTISRDNAKNTVYLQMTSLKPEDTAVYSCAAVTSQLYGYRYYYGGQGTQVTVSS	high polyreactivity
QVQLVESGGGLVQAGGSLRLSCAASGFTFRYYTMGWYRQAPGKERELVASISRRGGSTYYADSVKGRFTISRDNAKNTVYLQMNSLKPEDTAVYYCNTLSQVFASRAPKFDYWGHGTQVTVSS	high polyreactivity
QVQLVESGGGLVQAGGSLRLSCAASGFTFSDNAMGWYRQAPGKDRELVAAISRSGGNTHYADSVKGRFTISRDNAKNTVYFQMNSLKPEDTAVYYCAARVQGRGYGYYYWGQGTQVSVSS	high polyreactivity
QVQLVESGGGLVQAGGSLRLSCAASGFTFSDNAMGWYRQAPGKERELVAAISRSGGRTYYADSVKGRFTISRDNAKNTVYLQMNSLKPEDTAVYYCAAYQYGMDYWGQGTQVTVSS	high polyreactivity
QVQLVESGGGLVQAGGSLRLSCAASGFTFSENAMGWYRQAPGKERELVADITNGASTNYADSVKGRFTISRDNEKNTVYLLMNSLKPEDTAVYYCATDSYPGLNPDFDYWGLGTQVTVSS	low polyreactivity
QVQLVESGGGLVQAGGSLRLSCAASGFTFSFYAMGWYRQAPGKERELVATIRSGGRTYYADSVKGRFTISRDNAKNTVYLQRNSLKPEDTAVYYCAADDHYGRGFQYYYWGQGTQVTVSS	high polyreactivity
QVQLVESGGGLVQAGGSLRLSCAASGFTFSGYAMGWYRHAPGKERELVAAISSRGGRTYYADSVKGRFTISRDNAKNTVYLQMNSLKPEDTAVYYCAARSRRTDNSVQFDYWGQGTQVTVSS	high polyreactivity
QVQLVESGGGLVQAGGSLRLSCAASGFTFSGYAMGWYRQAPGKERELVAASTRRTGTTYYADSVKGRFTISRDNAKNTVYLQMNSLKPEDTAVYYCNKGYPSPPAGEYGYWGQGTQVTVSS	high polyreactivity
QVQLVESGGGLVQAGGSLRLSCAASGFTFSGYDMGWSRQAPGKERELVAGISSGGVSTTYADSVKGRFTISRDNAKNTVYLQMNSRKPEDTAVYYCNAEWTSFDWGQGTQVTVSS	low polyreactivity
QVQLVESGGGLVQAGGSLRLSCAASGFTFSGYDMGWYRPAPGKERELVAGISSGGVSTTYADSVKGRFTISRDNAKNTVYLQMNSLKPEDTAVYYCNAEWTSFDWGQGTQVTVSS	low polyreactivity
QVQLVESGGGLVQAGGSLRLSCAASGFTFSIYAMGWYRQAPGKERELVAAISGRGSSTYYADSVKGRFTISRDNAKNTVYLQMNSLKPEDTAVYYCKKFHHAYFSSVYSYAGGYWGQGTQVTVSS	high polyreactivity
QVQLVESGGGLVQAGGSLRLSCAASGFTFSKYAMGCSRQAPGKETELVAAISRSAGSTYYADSVKRRFTISREYAKNTVYLQMNSLKPEDTAVYYCARDNPRRPSGYNYSGQGTQVTVSS	high polyreactivity
QVQLVESGGGLVQAGGSLRLSCAASGFTFSKYAMGWYRQAPGKEREFVAAISSRGGRTYYADSVKGRFTISRDNAKNTVYLQMNSLKPEDTAVYYCAVDVHLVTEYDYWGQGTQVTVSS	high polyreactivity
QVQLVESGGGLVQAGGSLRLSCAASGFTFSLYAMGWYRQAPGKERELVARISDSGGGTYYADSVKGRFTISRDNAKNTVYLQMNSLKPEDTAVYYCAAVSVWYVTSTSYRYWRYDYWGQGTQVTVSS	high polyreactivity
QVQLVESGGGLVQAGGSLRLSCAASGFTFSNNAMGRYRQAPGKEREFVAAISGTGGSTYYADSLKGRFTISRDNANNTVYLQMNSLKPEDTAVYYCARRRTYPPGRYYYWGQGTQETVSS	high polyreactivity
QVQLVESGGGLVQAGGSLRLSCAASGFTFSNYAMGWYRQAPGKERELVAAITGSGGSTFYADSVKGRFTISRDNAKNTVYLQMNSLKPEDTAVYYCAAYYWSSKYDYWGQGTQVTVSS	high polyreactivity
QVQLVESGGGLVQAGGSLRLSCAASGFTFSPNAMGGYRQAPGKERELVAAISKRGASTYYADSVKGRFTISRDNAKNTVYLQMNSLKPEDTAVYYCNVGASARKPYDYWGQGTQVTVSS	high polyreactivity
